One block for each sequence: values may come before it.
Legend:
[1] = target: HLA-B*08:01; assay: IEDB peptide-MHC binding, purified MHC/competitive/radioactivity; filed as Kd, often an IC50 or EC50 that approximates it; ≥ and ≤ were set here for values at or beyond the usual limits of such assays
[2] = target: HLA-B*51:01; assay: as above
[3] = target: HLA-A*11:01; assay: IEDB peptide-MHC binding, purified MHC/competitive/fluorescence; ≥ and ≤ were set here for values at or beyond the usual limits of such assays
[4] = target: HLA-B*07:02; assay: IEDB peptide-MHC binding, purified MHC/competitive/radioactivity; filed as Kd, often an IC50 or EC50 that approximates it; ≥ and ≤ were set here for values at or beyond the usual limits of such assays
[5] = target: HLA-B*35:01; assay: as above
[6] = target: HLA-A*24:02; assay: IEDB peptide-MHC binding, purified MHC/competitive/fluorescence; ≥ and ≤ were set here for values at or beyond the usual limits of such assays; conditions: source organism: Zaire ebolavirus
[7] = target: HLA-A*02:01; assay: as above; conditions: source organism: Zaire ebolavirus
[8] = target: HLA-B*15:01; assay: IEDB peptide-MHC binding, purified MHC/competitive/fluorescence; filed as Kd, often an IC50 or EC50 that approximates it; ≥ and ≤ were set here for values at or beyond the usual limits of such assays; conditions: source organism: Escherichia coli str. K-12 substr. MG1655
[9] = target: HLA-A*68:02; assay: IEDB peptide-MHC binding, purified MHC/competitive/radioactivity; filed as Kd, often an IC50 or EC50 that approximates it; ≥ and ≤ were set here for values at or beyond the usual limits of such assays
[10] = target: HLA-A*26:01; assay: as above; conditions: source organism: Dengue virus 2 Jamaica/1409/1983
[11] = target: HLA-B*40:01; assay: IEDB peptide-MHC binding, purified MHC/direct/fluorescence; filed as Kd, often an IC50 or EC50 that approximates it; ≥ and ≤ were set here for values at or beyond the usual limits of such assays; conditions: source organism: Mycobacterium avium subsp. paratuberculosis
[12] = target: HLA-B*53:01; assay: IEDB peptide-MHC binding, purified MHC/competitive/radioactivity; filed as Kd, often an IC50 or EC50 that approximates it; ≥ and ≤ were set here for values at or beyond the usual limits of such assays; conditions: source organism: Dengue virus 3 Martinique/1243/1999
[13] = target: HLA-B*15:01; assay: IEDB peptide-MHC binding, purified MHC/direct/fluorescence; filed as Kd, often an IC50 or EC50 that approximates it; ≥ and ≤ were set here for values at or beyond the usual limits of such assays; conditions: source organism: Vaccinia virus Copenhagen
[14] = target: HLA-A*02:01; assay: as above; conditions: source organism: Vaccinia virus Copenhagen
[15] = target: HLA-B*51:01; assay: IEDB peptide-MHC binding, purified MHC/competitive/fluorescence; filed as Kd, often an IC50 or EC50 that approximates it; ≥ and ≤ were set here for values at or beyond the usual limits of such assays
[16] = target: HLA-A*02:06; assay: IEDB peptide-MHC binding, purified MHC/competitive/radioactivity; filed as Kd, often an IC50 or EC50 that approximates it; ≥ and ≤ were set here for values at or beyond the usual limits of such assays; conditions: source organism: Trypanosoma cruzi
[17] = target: HLA-A*02:02; assay: as above; conditions: source organism: Trypanosoma cruzi
[18] = target: HLA-A*02:03; assay: as above; conditions: source organism: Trypanosoma cruzi
[19] = target: HLA-B*18:01; assay: as above; conditions: source organism: SARS coronavirus Tor2
[20] = target: HLA-B*45:01; assay: as above; conditions: source organism: SARS coronavirus Tor2
[21] = target: HLA-B*44:03; assay: as above; conditions: source organism: SARS coronavirus Tor2
[22] = target: HLA-B*44:02; assay: as above; conditions: source organism: SARS coronavirus Tor2
[23] = target: HLA-B*40:01; assay: as above; conditions: source organism: SARS coronavirus Tor2
[24] = target: HLA-B*40:02; assay: as above; conditions: source organism: SARS coronavirus Tor2
[25] = target: HLA-A*26:01; assay: IEDB peptide-MHC binding, purified MHC/competitive/fluorescence; filed as Kd, often an IC50 or EC50 that approximates it; ≥ and ≤ were set here for values at or beyond the usual limits of such assays; conditions: source organism: Escherichia coli str. K-12 substr. MG1655
[26] = source organism: Dengue virus 3 Martinique/1243/1999
[27] = source organism: Dengue virus 2 Jamaica/1409/1983
[28] = source organism: Dengue virus 4 Philippines/H241/1956
[29] = source organism: Zaire ebolavirus
[30] = source organism: Vaccinia virus WR
[31] = source organism: Trypanosoma cruzi

Sequence: IKLTVVVGDI
- Kd [1, 26]: 1050 nM

Sequence: TALTGATEI
- Kd [2, 27]: 623 nM

Sequence: LSNTTGRLI
- IC50 ([3]; source organism: Sudan ebolavirus): 55500 nM

Sequence: TKTTAKEVAL
- Kd ([1]; source organism: Dengue virus 4 Dominica/814669/1981): 4000 nM

Sequence: TPPGATDPF
- Kd [4, 28]: 1070 nM
- Kd [5, 28]: 132 nM

Sequence: IPKAYAGPF
- Kd [4, 28]: 7.32 nM
- Kd [5, 28]: 290 nM

Sequence: THNTPVYKL
- IC50 [3, 29]: 62400 nM
- IC50 [6]: 17600 nM
- IC50 [7]: ≥ 735000 nM

- Kd [8]: 499 nM
Sequence: ANNKVYEAY

Sequence: HALNELPESL
- Kd [1, 28]: 3740 nM

Sequence: SSTSRFVMF
- Kd [1, 30]: 1100 nM

Sequence: ESPSKLASAI
- Kd [9, 27]: 74.2 nM
- Kd [10]: ≥ 66200 nM

Sequence: KEHKGVGFL
- Kd [11]: 30.3 nM

Sequence: SEKMRRERA
- Kd [1, 30]: 169 nM

Sequence: MPSMKRFRKE
- Kd [2, 26]: ≥ 69600 nM
- Kd [12]: 10900 nM
- Kd [5, 26]: 14000 nM

Sequence: LMRRGDLPV
- Kd [1, 27]: 17.8 nM

Sequence: LFMSHVKSV
- Kd [1, 30]: 3.07 nM
- Kd [13]: 15200 nM
- Kd [14]: 1750 nM

Sequence: LLILCVTQVL
- Kd [1, 27]: 979 nM

Sequence: FAIPIAEQI
- Kd ([15]; source organism: Listeria monocytogenes serotype 4b str. CLIP 80459): ≥ 20000 nM

Sequence: VLDQIDKNK
- IC50 [3, 30]: ≥ 71200 nM

Sequence: EARVEFGPL
- Kd [1, 30]: 177 nM

Sequence: FANYNFTLL
- Kd [9, 31]: 0.151 nM
- Kd [16]: 0.122 nM
- Kd [17]: 0.0839 nM
- Kd [18]: 3.42 nM

Sequence: SRFTPQFLL
- IC50 [3, 29]: 45400 nM
- IC50 [6]: 1730 nM
- IC50 [7]: ≥ 106000 nM

Sequence: MTYLPAWQV
- Kd ([15]; source organism: Yersinia pestis Nepal516): ≥ 20000 nM

Sequence: TVHADTGCAV
- Kd [9, 28]: 86.1 nM

Sequence: TPQAPTSEIQ
- Kd ([4]; source organism: Dengue virus 1 Brazil/97-11/1997): 808 nM

Sequence: RPISEKEENM
- Kd [4, 26]: 135 nM
- Kd [5, 26]: 502 nM

Sequence: NKKRFFSDV
- Kd [1, 30]: 8720 nM

Sequence: REAACCHLA
- Kd [19]: ≥ 31400 nM
- Kd [20]: 11.4 nM
- Kd [21]: 1910 nM
- Kd [22]: 3030 nM
- Kd [23]: 236 nM
- Kd [24]: 97.5 nM

- Kd [25]: ≥ 20000 nM
- Kd [8]: 708 nM
Sequence: ALKANNKVY

Sequence: RVSRPTTVV
- Kd [9, 31]: 200 nM
- Kd [16]: 1340 nM
- Kd [17]: 6200 nM
- Kd [18]: 105 nM

Sequence: SEVAVLYQDV
- Kd [19]: 3110 nM
- Kd [20]: 200 nM
- Kd [21]: 104 nM
- Kd [22]: 1120 nM
- Kd [23]: 962 nM
- Kd [24]: 134 nM

Sequence: FANYKFTLV
- Kd [9, 31]: 17.9 nM
- Kd [16]: 0.469 nM
- Kd [17]: 73.8 nM
- Kd [18]: 0.609 nM

Sequence: RKNGKKVIQL
- Kd [1, 27]: 161 nM

Sequence: LPWTSGATT
- Kd [4, 26]: 25.8 nM
- Kd [5, 26]: 1300 nM

Sequence: YSFSMFMSL
- Kd [1, 30]: 146 nM

Source: the Immune Epitope Database (IEDB)
